Reference: paper PMC6239170

Key:
IMP3 RRM12 = IMP3 RRM12 (UniProt O00425 1-161); test: ITC
IMP3 RRM12 Y5A = IMP3 RRM12 Y5A (UniProt O00425 1-161, Y5A); test: ITC
Sequence of IMP3 RRM12 Y5A (O00425 1-161 Y5A): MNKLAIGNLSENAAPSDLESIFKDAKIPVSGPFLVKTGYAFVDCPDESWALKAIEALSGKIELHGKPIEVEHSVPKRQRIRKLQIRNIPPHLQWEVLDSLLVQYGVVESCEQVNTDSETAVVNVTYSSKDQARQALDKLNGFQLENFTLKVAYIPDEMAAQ

Sequence of IMP3 RRM12 (O00425 1-161): as the sequence (O00425 1-161 Y5A) above, with A5Y counted along it

Row | Binder | binding result (IMP3 RRM12) | binding result (IMP3 RRM12 Y5A)
1 | UUUU (ssRNA) | no binding | –
2 | ACAC (ssRNA) | – | no binding
3 | GGGG (ssRNA) | no binding | –
